The record followed here is publication PMC4328881 (Cytokine, 2015).

The experiment addresses fibronectin (UniProt P02751 32-2477). Kind of experiment: SPR.

B1: 22 kDa (196 amino acids) OSM (natural protein, human, UniProt P13725 26-221, looked up)
chain: AAIGSCSKEYRVLLGQLQKQTDLMQDTSRLLDPYIRIQGLDVPKLREHCRERPGAFPSEETLRGLGRRGFLQTLNATLGCVLHRLADLEQRLPKAQDLERSGLNIEDLEKLQMARPNILGLRNNIYCMAQLLDNSDTAEPTKAGRGASQPPTPTPASDAFQRKLEGCRFLHGYHRFMHSVGRVFSKWGESPNRSRR
As to B1, the Kd was 2.6 µM.

As usually defined, the Kd is the concentration at which binding is half-saturated. Lower therefore signals a tighter complex.
